Test results as given in patent publication US20200057058A1 (MIT, published 2020).

How the values were obtained:
[1] = biological target: monomeric streptavidin variant mSA2; assay: apparent Kd (Kd,app); fluorescent binding curve, labeled mSA2 in PBS, 0.5 h exposure; quadratic fit
[2] = biological target: monomeric streptavidin variant mSA2; assay: apparent Kd (Kd,app); fluorescent binding curve, labeled mSA2 in PBS, 8 h exposure; quadratic fit
Description: (§1) The binding function of rcSso7d.SA oligomer-PNIPAM thin films was measured using fluorescently-labeled monomeric streptavidin (mSA2) and fluorescently-labeled streptavidin (SA). Details for the expression, purification, and fluorescent labeling of mSA2 are provided below. Samples were prepared by serial dilution of SA or mSA2 in PBS (pH 7.4), human urine (diluted to 50% v/v in PBS, pH 7.4), or blood serum (obtained as the supernatant by centrifuging whole blood at 1500×g for 10 minutes, then diluted to 50% v/v in PBS, pH 7.4). 0.5 μL drops of solutions containing serially diluted fluorescent mSA2 and fluorescent SA samples in PBS (pH 7.4) were gently applied to the surface of each bioconjugate thin film. […] Fluorescence microscopy images were acquired at 4× magnification using a Cy5 filter set and exposure time of 5000 ms on an Olympus IX-81 inverted fluorescence microscope with an AxioCam HRC CCD camera. Fluorescent intensity was calculated using ImageJ software⁶⁷ by determining the average fluorescent signal in a rectangular area of the fluorescent image free of defects and occupying no less than half of the full sample application area.
(§2) To evaluate how the apparent size-based diffusion properties translated to biosensing capabilities, binding curves were measured using SA and mSA2 solutions in buffer. […]

[3] = biological target: monomeric streptavidin variant mSA2; assay: apparent Kd (Kd,app); fluorescent binding curve, labeled mSA2 in PBS, 4 h exposure; quadratic fit
Description: as §1, with “film. Films were incubated in a sealed chamber saturated with water vapor at room temperature to prevent to prevent drying of the applied fluorescent samples.” for “film.”
(§3) To evaluate how the apparent size-based diffusion properties translated to biosensing capabilities, binding curves were measured using SA and mSA2 solutions in buffer. Binding curves were fit with a quadratic model that is a function of three parameters: the average MFI per binding event a, the total concentration of binding sites [P]T, and the apparent dissociation constant K_{d,app} describing the binding equilibrium between analyte and binding sites within the thin film.

[4] = biological target: monomeric streptavidin variant mSA2; assay: fluorescent binding curve, labeled mSA2 in PBS, 4 h exposure
Description: as §1, §2

[5] = biological target: monomeric streptavidin variant mSA2; assay: fluorescent binding curve fits, labeled mSA2 in PBS
Description: The binding function of rcSso7d.SA oligomer-PNIPAM thin films was measured using fluorescently-labeled monomeric streptavidin (mSA2) and fluorescently-labeled streptavidin (SA). Details for the expression, purification, and fluorescent labeling of mSA2 are provided below. Samples were prepared by serial dilution of SA or mSA2 in PBS (pH 7.4), human urine (diluted to 50% v/v in PBS, pH 7.4), or blood serum (obtained as the supernatant by centrifuging whole blood at 1500×g for 10 minutes, then diluted to 50% v/v in PBS, pH 7.4). […] After 1 hour, films were thoroughly rinsed with water for 10 seconds (a time determined to be sufficient to remove unbound molecules from the film, see FIG. 33, dried under filtered airflow, and immediately analyzed for fluorescent signal. Fluorescence microscopy images were acquired at 4× magnification using a Cy5 filter set and exposure time of 5000 ms on an Olympus IX-81 inverted fluorescence microscope with an AxioCam HRC CCD camera. Fluorescent intensity was calculated using ImageJ software⁶⁷ by determining the average fluorescent signal in a rectangular area of the fluorescent image free of defects and occupying no less than half of the full sample application area.
as §2

[6] = biological target: monomeric streptavidin variant mSA2; assay: fluorescent binding curve, labeled mSA2 in PBS, 4 h exposure; quadratic fit
Description: as §1, with “film. Films were incubated in a sealed chamber saturated with water vapor at room temperature to prevent to prevent drying of the applied fluorescent samples.” for “film.”
as §3

B1: 3xSP56.1k thin film (3x rcSso7d.SA-PNIPAM conjugate, PNIPAM Mn 56.1 kDa) (designed binder)
chain: MGSSHHHHHHSSGLVPRGSHMCATVKFTYQGEEKQVDISKIKIVARDGQYIDFKYDEGGGAYGYGWVSEKDAPKELLQMLEKQGGGGSGGGGSMATVKFTYQGEEKQVDISKIKIVARDGQYIDFKYDEGGGAYGYGWVSEKDAPKELLQMLEKQGGGGSGGGGSMATVKFTYQGEEKQVDISKIKIVARDGQYIDFKYDEGGGAYGYGWVSEKDAPKELLQMLEKQGG
modifications: maleimide end-functionalized PNIPAM (Mn 56.1 kDa) on the N-terminal Cys; film lightly crosslinked with glutaraldehyde
[1]
  Kd: 33 µM
[2]
  Kd: 13 µM
[3]
  Kd: 16 µM
[4]
  reduction in LOD relative to rcSso7d.SA monolayer: ~4 fold
[5]
  accessible binding sites relative to the 3×SP9.6k film: > 4 fold
[6]
  [P]T (total concentration of binding sites): 3.2 nM
